This note sets out measurements from the supplement of paper PMC12764529.

The nature of data set [1]: folding stability dG unfold from trypsin proteolysis; higher = more stable. Put shortly:
(§1)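 Unfolding free energy was derived, per protease or combined, against a sequence-predicted unfolded-state K50 and a shared folded-state K50, starting from K50 inferred by Bayesian fitting of sequencing counts. Digestion with trypsin and chymotrypsin was carried out on designed mini-proteins under 80 residues without cysteine in a PA-tagged cDNA display construct. Only designs with AlphaFold2 dimer inter-PAE above 15 were kept.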

Data set [2] in a line: folding stability dG unfold from chymotrypsin proteolysis; higher = more stable. Put shortly:
as §1

Data set [3] can be described thus: folding stability dG unfold (combined trypsin and chymotrypsin); higher = more stable. The procedure, abridged: as §1

± gives the half width of the 95% confidence interval.

“SAKLEIELNGYKIVSVEVNEDGTVKMKIEVDGKLYELTLKVKLPPPKVEVKEEKKEVKEVKFVKEGEEKSAG [r14_218_TrROS_Hall]”: the “folding stability dG unfold” value in data set [1] worked out at 1.18 ± 0.096 kcal/mol; in data set [2], 2.15 ± 0.094 kcal/mol; in data set [3], 2.05 ± 0.3 kcal/mol.
For the sequence “SAKMTAEEIAAALAEELGLEVVEVVEVDEETGKITIRVDGKLIEITVVEEDGELKIEVRVVDEETGEELSAG [r14_270_TrROS_Hall]”, the “folding stability dG unfold” value turned out to be 1.84 ± 0.087 kcal/mol in data set [1], 0.852 ± 0.073 kcal/mol in data set [2] and 1.36 ± 0.18 kcal/mol in data set [3].
In the case of “SAKMVVLKAYFKGDGDEIKEIADAIDFPYTIEKIPDYPDYYIATFVFPTEEKAPEWEKALKEKGYIVEGSAG [r14_745_TrMRF]”, the “folding stability dG unfold” value in data set [1] turned out to be 1.88 ± 0.04 kcal/mol; in data set [2] it was 2.48 ± 0.037 kcal/mol; in data set [3], 2.25 ± 0.049 kcal/mol.
For “SAKPPKVEVKTVRVTIKVRNKDGSTYTITKEVTEVRVEVDGKTVTVTSIKITIELPPGITEVEIKIEKVSAG [r14_892_TrROS_Hall]” the same measures were 3.61 ± 0.49 kcal/mol, 4.84 ± 0.29 kcal/mol and 4.47 ± 0.47 kcal/mol.
For “SAKTLTIEELAKKLKEELEKKTGKKLSKEELKKKALELAKKLAEEKGLKIKSVKVEEKDGKLTVTVEVESAG [r14_147_TrROS_Hall]”, the “folding stability dG unfold” value was found to be 3.2 ± 0.16 kcal/mol in data set [1], 3.26 ± 0.082 kcal/mol in data set [2] and 2.84 ± 0.15 kcal/mol in data set [3].
Regarding “SAKTVKVRIELTLTVVKVTLDPETGELKVEEVKTLTLEIELEMSEEDLEKARRALEEELKRLLEELGIPSAG [r14_308_TrROS_Hall]”, the “folding stability dG unfold” value stood at 3.64 ± 0.29 kcal/mol in data set [1], 3.78 ± 0.33 kcal/mol in data set [2] and 3.9 ± 0.37 kcal/mol in data set [3].
For “SAKTVTLKVTLEIEINGVRVKVEATLTLELDENGELKLTLELKIEIEPAPPPKEVKLTEEEKKKLEELKSAG [r14_442_TrROS_Hall]”, in that order: 2.44 ± 0.23 kcal/mol, 3.79 ± 0.2 kcal/mol and 3.25 ± 0.69 kcal/mol.
For “SAKVYRTKDGKEVKVEKKKVKVKTIEIEIEIEMPKELEEKVKKLAEELAKKLAEELNLPPGAKIKITVRSAG [r14_453_TrROS_Hall]” the same measures were 2.54 ± 0.06 kcal/mol, 2.04 ± 0.051 kcal/mol and 2.34 ± 0.17 kcal/mol.
For “SAKYKIIEAKPGKNVVTITVEYTLPNGEKLTKPIPINAINPVIVEVSEDSITIYDPNNGKLITFPAEKLSAG [r14_947_TrMRF]”, in that order: 2.1 ± 0.12 kcal/mol, 2.87 ± 0.037 kcal/mol and 2.49 ± 0.12 kcal/mol.
“SALDVPPDARVYVFRLRYPVPPGVSAADVAARVRAELSERFGPDVEIVVTVTPDPETGEVLVEAVVVEPVSA [r9_657_TrMRF]”: the “folding stability dG unfold” value in data set [1] came out at 3.57 ± 0.12 kcal/mol; in data set [2] it was 4.05 ± 0.058 kcal/mol; in data set [3] it was 3.82 ± 0.16 kcal/mol.
Regarding “SALEELLKELAEKLGYPYTVLEIKKEENTYKMVIKLTKEGTPVIVDVEIEFPSSDPNVYKVKIKKIEEPSAG [r14_387_JUSTAS]”, the “folding stability dG unfold” value in data set [1] amounted to 2.8 ± 0.087 kcal/mol; in data set [2], 3.603 ± 0.027 kcal/mol; in data set [3] it was 3.49 ± 0.072 kcal/mol.
For “SALEIEIEQDEDGNMRISVYLPGWKPIEEQPVPPGDGMKTFIIKLPDRVLMITFTNGGIEPNPVPLNDISAG [r14_403_TrROS]”, in that order: 2.44 ± 0.17 kcal/mol, 2.69 ± 0.092 kcal/mol and 2.51 ± 0.23 kcal/mol.
For “SALKIEISFPGNAGEVRERVLGREDGSYEVEFLVTFPTPGDGIPSVLRVTYRVDPVSGKIEPRLEPVDASAG [r14_590_TrMRF]”, in that order: 1.48 ± 0.025 kcal/mol, 3.24 ± 0.036 kcal/mol and 2.65 ± 0.052 kcal/mol.
For “SALLVAPDGTVVKPETIKTTVETFTTYFLPPGKPVTRKGVKEYTVTVTTTTYTTPNPTLTVETTVTTVGSAG [r14_291_JUSTAS]”, the “folding stability dG unfold” value was -0.0458 ± 0.11 kcal/mol in data set [1], 0.667 ± 0.2 kcal/mol in data set [2] and 0.392 ± 0.2 kcal/mol in data set [3].
For “SALPLPSSAKVELEWELVGVDPGSKGAKVYYRRTLKVTFPTGSLTVTYLVEYDPETGTFSWSITSVSPESAG [r14_293_TrMRF]” the same measures were 4.1 ± 0.19 kcal/mol, 5.65 ± 0.095 kcal/mol and 5.38 ± 0.21 kcal/mol.
Turning to “SALPPGTTVTYTFYDPATGALVTVTVTTLPDGTVRVTLTVYDPSTGETTTVTFTVDGATLDELLDFIRAGSA [r9_618_TrMRF]”, the “folding stability dG unfold” value in data set [1] was 3.77 ± 0.3 kcal/mol; in data set [2] it was 5.28 ± 0.18 kcal/mol; in data set [3], 5.37 ± 0.32 kcal/mol.
Regarding “SALRPDIPFDAVEKVVIPARHPLLGGVVEAGVYRLKDSDAVLVVVTFPDGSKLVFLVRPDDVLDVLDAISAG [r14_240_TrMRF]”, the “folding stability dG unfold” value came out at 2.38 ± 0.066 kcal/mol in data set [1], 2.969 ± 0.01 kcal/mol in data set [2] and 2.75 ± 0.045 kcal/mol in data set [3].
With “SAMANITANYYDPETGKVLAKDLPLPNGDEVHVTPNPVTGTVTVEWDGPEEALEVIKAALPPDWKIYPLSAG [r14_252_TrMRF]”, the “folding stability dG unfold” value is 0.712 ± 0.035 kcal/mol in data set [1], -0.0765 ± 0.16 kcal/mol in data set [2] and 0.362 ± 0.18 kcal/mol in data set [3].
For “SAMDFPPGSTATIKVEVKNPDNTKTETYEIEVPVDPETGKAITLEDLKEALEKLGVNPENVKIVDIKVGSAG [r14_93_TrMRF]” the same measures were 3.18 ± 0.22 kcal/mol, 2.25 ± 0.2 kcal/mol and 2.72 ± 0.27 kcal/mol.
“SAMEIEIEPLEKEELLKLPGAEIRLFYFPDRVLAEILLPDGTPFFVEFDPSLKPEEVLEKLLKLLEELGSAG [r14_618_TrMRF]”: the “folding stability dG unfold” value turned out to be 3.98 ± 0.18 kcal/mol in data set [1], 4.29 ± 0.1 kcal/mol in data set [2] and 4.23 ± 0.13 kcal/mol in data set [3].
For “SAMEINIVLVAPPESPEALELAKEVAELVAKEIEEEGIPVEVEVEKIEFFRLPDGSIVVLIPIKVKPPESAG [r14_48_TrMRF]” the same measures were 1.89 ± 0.1 kcal/mol, 3.27 ± 0.074 kcal/mol and 2.63 ± 0.19 kcal/mol.
Consider “SAMEKVYIKVKFEVEGDPNGKEKKTIELIVENPDPNIGKEKLLEIAKEAVEKFAKENGYKVKISEVEIGSAG [r14_190_TrMRF]”, for which the “folding stability dG unfold” value was 2.76 ± 0.29 kcal/mol in data set [1], 4.22 ± 0.18 kcal/mol in data set [2] and 4.29 ± 0.39 kcal/mol in data set [3].
For “SAMELEFETDGSVSVEELIEEFKKAFPLVKEIEAEAEPIPYIPKYKVRFKIKLVPVPTPEEIEEFGKKKSAG [r14_645_TrMRF]” the same measures were 1.02 ± 0.065 kcal/mol, 1.37 ± 0.21 kcal/mol and 1.2 ± 0.17 kcal/mol.
For “SAMELRVESELFPDGRRRLVVLDPGDGAPVVTFIDLEPVDGGYRASITQIGPDPAVAERVARELGIPPESAG [r14_545_TrMRF]”, in that order: -0.191 ± 0.21 kcal/mol, 1.17 ± 0.047 kcal/mol and 0.786 ± 0.082 kcal/mol.
Turning to “SAMERVEIVVKVKVRPDMSLEELKERVERELRRLLEERGIELPEGAKITVEIVEETEDYVVVKVTIELPSAG [r14_735_TrROS_Hall]”, the “folding stability dG unfold” value was 4.53 ± 0.24 kcal/mol in data set [1], 2.91 ± 0.14 kcal/mol in data set [2] and 4.4 ± 0.32 kcal/mol in data set [3].
With “SAMETYEYPVTGDSATFTVPVPPDHIAKVTVHYPSGSTDTVVPPGVTTTFTVPSSNATVTITIYPRSALSAG [r14_882_JUSTAS]”, the “folding stability dG unfold” value in data set [1] amounted to 1.01 ± 0.025 kcal/mol; in data set [2], 1.53 ± 0.11 kcal/mol; in data set [3] it was 1.34 ± 0.068 kcal/mol.
